Source: the DeepSol protein solubility set

Assay: soluble on expression in E. coli; label from the status in PepcDB or PDB records

| Sequence | soluble on expression in E. coli |
| --- | --- |
| MGSDKIHHHHHHMMNNLKRILKNPRLILIFILSRYCHWIDDKTYLCIMYFIYFGKLLHLNSPRTFNEKLQWLKLYDRHPEYTQMVDKATVKEYVASIIGEKYIIPTLGVWENFDDIDFENIPSSFVLKCTHDSGGVVICENKNLFDVEKARSKLLKSMKKNYYYVGREYPYKDIKPRIIAEKYMVDESHIELKDYKIHLFHGIPNFIQVDFDRFTSHHRNLYTIDWKPLGKAIKYPAVYEREIDKPIVLDEMLELAMKLAFNIPYVRADFYCIGNKVYFGELTFYHGSGFETFSPKSFDEELGALIKLS | not soluble |
| MSLTIAHLTSSAFAVNKERNKFLMIHHNIYNSWAWTGGHSDNEKDQLKVAIKELKEETGVKNPTPLLDKAFALDVLTVNGHIKRGKYVSSHLHLNLTYLIECSEDETLMLKEDENSGVMWIPFNEISKYCSEPHMIPIYEKLINKLKTQSKEGHHHHHH | not soluble |
| DPFSNLTELANALKEKYQLKNVTVAFSQTNDYSEISKQISQSAAEYLEEIIHDDDILGVSWGTTMYKIAQKLSPQKAEIKVVQLKGGVSHSDVNTYAAETLALFGAAYDTAPVSLPLPVVLDNPLAKQMVEADRHIKNIIELGKKANIAIFTVGTVREEALLFRLGYFSDEEKIRLKEKAVGDICSRFFTINGEIADEKMNERTIGIDLQDLKQKETAILVAGGERKIKAIHGALRGGYANHFITDQYTAKQLLEQNFS | not soluble |
| MGSDKIHHHHHHMGQSEVNFYQQEVVELLKQVIEPNLKNDIVSLGMVRNLRIVDDYVYLRLYIGSHQQQLQTEVEAKLSALSWCKKTYIQICTIPGVKITLGISSGKGGVGKSTTAVNIAAALSLQGAKVGLLDADVYGPNVPQMLGLGQADVEVIQTPTGEKFLPLEVQGIKLMSVGLLAEENRPLAWRGPVLHKIITQFINDVEWGELDYLLIDLPPGTGDAQITIIQESPICGVILVTTPQQVAVADVRRNIYMFRQVGVPVLGIVENMSYLICGDCGSRTYIFGSGGGEQLATELQAPLLGQIPIDQRICSGGDSGNPIAISEQTSPASEVFRNIAIAIGLSFP | not soluble |
| MFEKGIWLNEPRQWSVTDQRLTVITDPETDFWQQTHYGFCRDTGHFLGVSVKGEFTAQVHVQGDFKTLYDQAGLMVRVDERNWVKTGVEVSDGALMLGSVLTWGQSDWATGVFDDSSSGLWLRVTVAKGVMRIQHSSDGLRWPLLRLAAFPLSERYAVGAMCCSPERGGLKVVFSHFEVMPALGKDLHDLTLEHHHHHH | not soluble |
| MSLGYHTLEVTVGNEAETATVISAPEKIELLDDMKNGSLWGWMSQLYSIRSKGSWGVGDFEDLKTMLVEAKKKTGSDFMLINPMHAAEPVPPLTPSPYLPISRRFINFSYIRPESMPEYLTLSHEDRAEVDALHEQVESLNDDARLIDRDAMWRVKKHALWVIYKAGRTKARQAEFDRYLAECGDEIESYATWCLCYDKWGAPSDDADNWVRKYNRDSEEVAQLREKFPDTLEFYRWLEWVATDQLHAAQQAARKAGMKIGIVADMAVGVHPAGSDVWWNPERFAKGATVGAPPDMFNQQGQDWSQPPLNPIALEQTGFKVYRDMVHDMFANAGAVRIDHILGLFRLWWIPEGKPATDGTYVHYDSDVMLGILALEASRAGGVVVGEDLGVVPAYVSKSLSEHGILGCAVEWFEQMDGVFRTPKDWRPYALASVNTHDMPPAAGYLEYGHVKLREQLGLLSGPVEEFQKSATAEHNAMLNMLVEEGYLDKAALDDEAANENEIVDALYRGLKGSPCKLMAASIVDAVGEKRTQNQPGTNNEYPNWRIPLADGEGNVVPLEKLFDEPRLQEITAIMREGHHHHHH | not soluble |
| VYRTPRTCSPHFPAGPARVINPGLHELHASAGDERDAPIGINFRSPRMRMAGEFVPDSGACDAAHGGSAAPTRKAGMRIGGAAAGKVE | not soluble |
| MAHHHHHHMLRARTLLLFMRPEAAAAELRRLLPLLSFAGRRTGAATHSVASLIVSTAYSATAARSVTNHSRDCPVLSKKLPLPLIGKESSFAARPCLNCVRERVHYVSSLSFCDYFEKKCAEAQHYRNGASSNGVVGTAALPKLLLEAIERSYGSVAAFKDSVMLHSTGAMSPGRLWIVYTPPISGSEHGAVRLLNLPACKVPLVHGLWPLAVINMTEKRLCEQIACRSGKGGDAVDADDAPAWRHAARTRKTLGALATTEEGNDRAGNVAQVKLSSIQSAIAEEALCAMNWKFVETQLTSALAYYSSKERTQTQREHRKEKEHVAAVRAMSQLKNSGAVIHATDSVTITSSNSFVASSASEPNLSAAAAVTSSSAKAENSALGEANTQTAAVAAPSAEATAANTASNSAQPADNTATGAAAAEPRAVQQADGTWEYHYNNGSVTKALPDGTKVFQTESLTTTVFVNGDTLFEYPNNTSILDRADGVRVITYADGTKKEERLK | soluble |
| MKIAVVGGGIVGLSTAFELSSRGHSVHVFDPNPASGASHFAGGMLAPAAEVQFQQDPLFPLMKRAGKLWPDMVRRVAQRTNLPTGYRTEGTLVVAADRADAEHLKQLRATQEAAGMDVRPITTRQARGLEPALGPRLSAAVHIPNDTQVAPRVFLTALLDALDDCGVGVIKEKITDLEPLYQQFD | not soluble |
| WRRLLESLQQGRRSEERNRLVVERTNQAILLLEPGAGTIIDANPATCVLLGFSRNELTGADIHALLSGPVQEVDSELERCLRETRELSLCHRDGAELVVEAMATQVPHGDDQALCLMFHDIT | not soluble |
| MGSDKIHHHHHHMFDFKELEAFVWVVRLGSFRKGAAKLYLTQPSISDRITRLEDSVGESLLDRSARPVQPTLRGREFFTYAERLLEGREEAMRLFQDEESFSGTLRLGVIETIASSWCPTFMRRLAERYPQLTIELTVDISPFLHQRLAENDLDMLFAMDGVAPGLCAIQTPLCTYEMGMFAAPEMAATLQRGGPAAFAETAFISFSKQARPYRELVAYLTALGIDTPRIHRTSTLMTIMRMSIEGVGIGVLPVATVRDAVESGSLVRLTLEEPLPPMIYDAIWRSANYPSFCASVARLAKQCATDYAQDHGKLSSPASMKGYVDT | not soluble |
| MGSSHHHHHHSSGLVSRRHMNIDMAALHAIEVDRGISVNELLETIKSALLTAYRHTQGHQTDARIEIDRKTGVVRVIARETDEAGNLISEWDDTPEGFGRIAATTARQVMLQRFRDAENERTYGEFSTREGEIVAGVIQRDSRANARGLVVVRIGTETKASEGVIPAAEQVPGESYEHGNRLRCYVVGVTRGAREPLITLSRTHPNLVRKLFSLEVPEIADGSVEIVAVAREAGHRSKIAVRSNVAGLNAKGACIGPMGQRVRNVMSELSGEKIDIIDYDDDPARFVANALSPAKVVSVSVIDQTARAARVVVPDFQLSLAIGKEGQNARLAARLTGWRIDIRGDAPPPPPGQPEPGVSRGMAHDR | soluble |
| MSEFNEKPEKLIVDGLRLDGRKFDELRPIKIEASVLKRADGSCYLEMGKNKVIAAVFGPREVHPRHLQDPSKAIIRYRYNMAPFSVEERKRPGPDRRSIEISKVSKEAFEAVIMKELFPRSAIDIFVEVLQADAGSRTACLNAASVALVDAGVPMKGMITSVAVGKADGQLVLDPMKEEDNFGEADMPFAFLIRNGKIESIALLQMDGRMTRDEVKQAIELAKKGALQIYEMQREAILRRYIEVGEEMDEITEGGEDA | soluble |
| SANDKQYISYNNVHQLCQVSAERIKNFKPDLIIAIGGGGFIPARILRTFLKEPGVPTIRIFAIILSLYEDLNSVGSEVEEVGVKVSRTQWIDYEQCKLDLVGKNVLIVDEVDDTRTTLHYALSELEKDAAEQAKAKGIDTEKSPEMKTNFGIFVLHDKQKPKKADLPAEMLNDKNRYFAAKTVPDKWYAYPWESTDIVFHTRMAIEQGNDIFIPEQEHKQ | soluble |
| SMEEKLKKTNIIFVVGGPGSGKGTQCEKIVQKYGYTHLSTGDLLRSEVSSGSARGKKLSEIMEKGQLVPLETVLDMLRDAMVAKVNTSKGFLIDGYPREVQQGEEFERRIGQPTLLLYVDAGPETMTQRLLKRGETSGRVDDNEETIKKRLETYYKATEPVIAFYEKRGIVRKVNAEGSVDSVFSQVCTHLDALLN | soluble |
| MAHHHHHHMTSVYNFKTITVVPTYKDFMDIVLSKTQRKTPTVVHKGYHISRIRQFYMRKVKFTQKTINEKLTYILQEFPRMDDIHPFYGDLMHVLYDRDHYKVALGQVGAVRHMVDNIGRDYVRLLKYGDSLYRCKQLKRAALGRMATACKKLNSALAYLEKVRQHMSRLPSIDPNARTLLVTGFPNVGKSSFMNKVTRADVEVQPYAFTTKSLFVGHTDYKYTTWQVIDTPGILDHSLEERNVIEMQAITALAHLRACILFFMDLSGQCGYSIEQQVSLFKSVGPLFTGKPVVVVFNKCDVCTIDDVSSAEQELIMDAIQEADAKWITTSTLTDVGVGDLKTVACDMLLAHRSEQKEGSGRYQAIQNRLYCATPQQRDELERPAFVPASVLQARATGEPPRQRRKTERDYEWENGGPGQYQKNERKTWDLENPEWVDDIIPDIMDGHNIYDNIDPDIHQRLLELEAEEEARLEDLELEASRKHEQYTLDNDTIEAVKFIKDKIKVLKMERAMKNPAIRRTHSQAMAIDKFNKRTGSQDARAKSIADGSGEVPTRKRGRSMSVAQEALIRDRSGSAHVSTKTTRSISGASASRERSMSVNRGDGYRDVNEKLRAVKLSKVKARPLARQARKGEGDHHIPNLRPMHLFTGKVKSNGARDRR | not soluble |
| MPDSILEAARGGRTMQKYSEMSKEQLQAVKKELDQQYAEIKAQGLALDMSRGKPSVDQLNISMDMMDVLSSSTDLRCETGVDCRNYGVMDGIPEAKRLLGEISEVDPEHIIIYGNSSLNVMFDTVSRSMTHGVMGNTPWCKLDKVKFLCPVPGYDRHFKITEFFGIEMINVPMSPEGPDMDMVEKLVSEDPAIKGIWCVPKYSNPQGYTYSEETVKRFANLKPAAPDFRIYWDNAYSVHHLYDDEKDQDFLLEILDECAKAGNPDMVYKFTSTSKISFPGSGIAALAASKANLDDIRKYITVQTIGHDKLNQLRHVKFFKDLEGVHAHMRKHAAILRPKFEMVEATLEKELGGLGIGEWTTPKGGYFISFESLDGCAKKIVAMAKEAGVVMTGAGATYPYGKDPKDSNIRIAPSFPPIEELEKAAQVFVVCVKLASVEKLLAE | not soluble |
| MGSDKIHHHHHHMSETNAQKVQEVIIAGMSKTVANYDYAMSELEALVAANNMHAALRIDQGLEKPNPATFFGKGKVVEIKEVAAANDLHIMVINADLTPSQVRNLEEQTDIQIIDRTGLILEIFGNRARSKEAKLQVKIAQLQYQLPRLRTSISNRLDQQAGAAAGGGGGFTNRGAGETQLELNRRTIQDRISHAKHELKELNKDEVVRRSQRDKAGLPNVALVGYTNAGKSTTMNGLVKLFGKGEDKQVFEKDMLFATLDTSIRQLTFPDNKQLLLSDTVGFVSDLPHNLINAFRSTLAEAANADLLIQVIDYADPHYKEMMATTEKTLKEIGVHDVPMIYAFNKADLTEADYPNQQDDQLIYTARDEASLQALTSMIKAKVFKNYVTTTLLIPFNDGEVVAYLNDHANILKTDYLADGTQLTVELNTVDAQRYEKYVVTPA | not soluble |
| MNIDAVVEFTKKHLKDEKTGHDFYHGQRVANLASKMYLEDHPDAHADSRMVAIIKSGGYLHDTIDEKVCDNPDKVIAEIKELLPEVGFTDLEVWDILFTIQHMSFSANIEHHYHLPLSGQYVQDADRLESLGAMGIARAFTYGGKHGNKIYDPEIKPEKLVSHDQYRNHVETTINHFYEKLFHLADTMNTPAMKKEANRRTEYMHNFVQEFMNEWNVLEHHHHHH | soluble |
| AEAKSKLTVALGKDIAGTPVVGDLAKMPHLLVAGMTGSGKSVGVNGMIMSMLFKATPDEVRFIMIDPKMLELSIYDGIPHLLCPVVTDMREAGQALNWCVAEMEKRYRLLSHAGVRNLEGFNQKVEAAKAAGKPLLNPFSLNPDEPEPLEKLPLIVVVIDELADLMMTERKAVEQQIARLAQKARAAGIHMIVATQRP | not soluble |
| IDKKLTTLADLFRPPIDLMHKGSFETAKECGQMQNKWLMINIQNVQDFACQCLNRDVWSNEAVKNIIREHFIFWQVYHDSEEGQRYIQFYKLGDFPYVSILDPRTGQKLVEWHQLDVSSFLDQVTGFLGEHGQLDGLSSS | soluble |
